The values that follow come from publication PMC4072508, “Genome-Wide Prediction and Validation of Peptides That Bind Human Prosurvival Bcl-2 Proteins” (PLoS Computational Biology, 2014).

One experiment deals with T1, Mcl-1, Q07820.
T1 chain: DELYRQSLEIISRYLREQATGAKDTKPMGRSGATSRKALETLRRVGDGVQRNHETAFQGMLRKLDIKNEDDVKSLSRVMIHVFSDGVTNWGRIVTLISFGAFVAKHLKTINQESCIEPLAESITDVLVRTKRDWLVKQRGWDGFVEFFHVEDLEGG
Description: peptide SPOT array, c-Myc-tagged receptor at 1 uM or 100 nM, anti-c-Myc-Cy3.

The target of the next experiment is Bcl-xL, Q07817. The experiment is described as above.
Sequence of Bcl-xL, Q07817 (Q07817 1-209): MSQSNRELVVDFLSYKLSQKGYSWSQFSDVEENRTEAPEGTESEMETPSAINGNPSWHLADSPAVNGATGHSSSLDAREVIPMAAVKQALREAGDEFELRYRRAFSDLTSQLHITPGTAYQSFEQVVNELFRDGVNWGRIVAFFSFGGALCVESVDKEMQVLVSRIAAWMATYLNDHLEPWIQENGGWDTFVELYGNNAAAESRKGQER

B1: EXOC5 (peptide)
chain: DEHISYVATKVCHLGDQLEGVNTPRQ
For B1, the SPOT signal as a fraction of Bim BH3's signal on the same receptor and array stood at 0.01 with Mcl-1, Q07820 and 0.02 with Bcl-xL, Q07817.

B2: SLC40A1 (peptide)
chain: AKFLLYLGHSDSTWGDRMWHFAVSVF
With B2, the SPOT signal as a fraction of Bim BH3's signal on the same receptor and array in the experiment with Mcl-1, Q07820 was 0.03; with Bcl-xL, Q07817 it was 0.03.

B3: CDC42BPG (peptide)
chain: ELQAPATVQSLGLLGDRLCVGAAGGF
Regarding B3, the SPOT signal as a fraction of Bim BH3's signal on the same receptor and array amounted to 0.01 in the experiment with Mcl-1, Q07820 and 0.01 in the experiment with Bcl-xL, Q07817.

B4: CREBBP (peptide)
chain: TPSRSALSSELSLVLDTTGDTLEKFV
Regarding B4, the SPOT signal as a fraction of Bim BH3's signal on the same receptor and array is 0.01 with Mcl-1, Q07820 and 0.02 in the experiment with Bcl-xL, Q07817.

B5: ITPR3 (peptide)
chain: KKCQDMIMTELTNAGDDVVVFYNDKA
In the case of B5, the SPOT signal as a fraction of Bim BH3's signal on the same receptor and array is 0.01 in the experiment with Mcl-1, Q07820 and 0.02 with Bcl-xL, Q07817.

B6: FLAD1 (peptide)
chain: LSPGRSVTAGIIIVLDEILKGHTQDT
On to B6, for which the SPOT signal as a fraction of Bim BH3's signal on the same receptor and array with Mcl-1, Q07820 came to 0.01; with Bcl-xL, Q07817 it was 0.01.

B7: VCL (peptide)
chain: KRALIQCAKDDAKASDEVTRLAKEVA
Consider B7, for which the SPOT signal as a fraction of Bim BH3's signal on the same receptor and array was 0.02 with Mcl-1, Q07820 and 0.05 with Bcl-xL, Q07817.

B8: MSH3 (peptide)
chain: AVLCVECGYKDRFFGEDAEIAARELN
As for B8, the SPOT signal as a fraction of Bim BH3's signal on the same receptor and array with Mcl-1, Q07820 was determined as 0.02; with Bcl-xL, Q07817, 0.02.

B9: CLTC (peptide)
chain: FRLAQMCGLHIVVHADELEELINYYQ
As for B9, the SPOT signal as a fraction of Bim BH3's signal on the same receptor and array with Mcl-1, Q07820 was 0.02; with Bcl-xL, Q07817, 0.02.

B10: CPS1 (peptide)
chain: HGTSSRIGSSMKSVLEVMAIGRTFEE
On to B10, for which the SPOT signal as a fraction of Bim BH3's signal on the same receptor and array in the experiment with Mcl-1, Q07820 was found to be 0.02; with Bcl-xL, Q07817, 0.02.

B11: TEP1 (peptide)
chain: AALFLHAGCQLLTALEDGKVQVWSGS
B11: the SPOT signal as a fraction of Bim BH3's signal on the same receptor and array with Mcl-1, Q07820 stood at 0.01; in the experiment with Bcl-xL, Q07817 it was 0.02.

B12: FLAD1 (peptide)
chain: LSPGRSVTAGIIIVGDEILKGHTQDT
With B12, the SPOT signal as a fraction of Bim BH3's signal on the same receptor and array with Mcl-1, Q07820 came to 0.01; in the experiment with Bcl-xL, Q07817 it was 0.01.

B13: NT5C2 (peptide)
chain: CDLLGAKGKDILYIGDHIFGDILKSK
In the case of B13, the SPOT signal as a fraction of Bim BH3's signal on the same receptor and array with Mcl-1, Q07820 was 0.04; with Bcl-xL, Q07817 it was 0.04.

B14: CCDC76 (peptide)
chain: KLPVVGIGKHLCGMLTDLALRCLVET
For B14, the SPOT signal as a fraction of Bim BH3's signal on the same receptor and array worked out at 0.03 with Mcl-1, Q07820 and 0.04 with Bcl-xL, Q07817.

B15: DCAF8 (peptide)
chain: TLHFNQRGTWLASGLDDLKVVVWDWV
B15: the SPOT signal as a fraction of Bim BH3's signal on the same receptor and array with Mcl-1, Q07820 was found to be 0.02; in the experiment with Bcl-xL, Q07817, 0.02.

B16: KPNB1 (peptide)
chain: DHTDGVVACAAGLILDLCTAFGKDVL
Turning to B16, the SPOT signal as a fraction of Bim BH3's signal on the same receptor and array was found to be 0.02 with Mcl-1, Q07820 and 0.01 with Bcl-xL, Q07817.

B17: KPNB1 (peptide)
chain: DHTDGVVACAAGLIGDLCTAFGKDVL
Regarding B17, the SPOT signal as a fraction of Bim BH3's signal on the same receptor and array with Mcl-1, Q07820 is 0.02; with Bcl-xL, Q07817 it was 0.02.

B18: CLTC (peptide)
chain: FRLAQMCGLHIVVHLDELEELINYYQ
For B18, the SPOT signal as a fraction of Bim BH3's signal on the same receptor and array was 0.02 with Mcl-1, Q07820 and 0.02 with Bcl-xL, Q07817.

B19: EEF2 (peptide)
chain: GSGLHGWAFTDKQFAEMYVAKFAAKG
On to B19, for which the SPOT signal as a fraction of Bim BH3's signal on the same receptor and array with Mcl-1, Q07820 is 0.03; in the experiment with Bcl-xL, Q07817, 0.12.

B20: DBC1 (peptide)
chain: ISDVQVFGYSLRFNLDLLRSAVQQVN
Turning to B20, the SPOT signal as a fraction of Bim BH3's signal on the same receptor and array in the experiment with Mcl-1, Q07820 is 0.02; with Bcl-xL, Q07817, 0.03.

B21: VPS13C (peptide)
chain: SRQPRDFGDSLARGLKGFLRGVVGGV
On to B21, for which the SPOT signal as a fraction of Bim BH3's signal on the same receptor and array was determined as 0.18 with Mcl-1, Q07820 and 0.34 with Bcl-xL, Q07817.

B22: ADCY10 (peptide)
chain: EKVLIFGGDIDKFAGDALLALWRVER
For B22, the SPOT signal as a fraction of Bim BH3's signal on the same receptor and array in the experiment with Mcl-1, Q07820 stood at 0.02; with Bcl-xL, Q07817, 0.02.

B23: HDLBP (peptide)
chain: RHFVIRRGQVLREILEEYGGVMVSFP
As for B23, the SPOT signal as a fraction of Bim BH3's signal on the same receptor and array in the experiment with Mcl-1, Q07820 is 0.05; with Bcl-xL, Q07817, 0.04.

B24: CCT3 (peptide)
chain: DVGTGAGLLEIKKILDEYFTFITDCK
Consider B24, for which the SPOT signal as a fraction of Bim BH3's signal on the same receptor and array in the experiment with Mcl-1, Q07820 is 0.02; in the experiment with Bcl-xL, Q07817, 0.02.

B25: PRPSAP1 (peptide)
chain: ITVVGDVGGRDAIIVDDIIDDVESFV
In the case of B25, the SPOT signal as a fraction of Bim BH3's signal on the same receptor and array worked out at 0.01 with Mcl-1, Q07820 and 0.02 with Bcl-xL, Q07817.

B26: OBSCN (peptide)
chain: RCELQICGLAMADALEYLCVCGQERT
As for B26, the SPOT signal as a fraction of Bim BH3's signal on the same receptor and array was determined as 0.02 in the experiment with Mcl-1, Q07820 and 0.02 in the experiment with Bcl-xL, Q07817.

B27: CCDC76 (peptide)
chain: KLPVVGIGKHLCGMATDLALRCLVET
In the case of B27, the SPOT signal as a fraction of Bim BH3's signal on the same receptor and array with Mcl-1, Q07820 was determined as 0.03; in the experiment with Bcl-xL, Q07817 it was 0.04.

B28: CREBBP (peptide)
chain: TPSRSALSSEDSLVGDTTGDTLEKFV
With B28, the SPOT signal as a fraction of Bim BH3's signal on the same receptor and array with Mcl-1, Q07820 stood at 0.01; in the experiment with Bcl-xL, Q07817 it was 0.01.

B29: VCL (peptide)
chain: KRALIQCAKDIAKALDEVTRLAKEVA
For the molecule B29, the SPOT signal as a fraction of Bim BH3's signal on the same receptor and array amounted to 0.05 with Mcl-1, Q07820 and 0.21 with Bcl-xL, Q07817.

B30: CCT3 (peptide)
chain: DVGTGAGLLEDKKIGDEYFTFITDCK
For B30, the SPOT signal as a fraction of Bim BH3's signal on the same receptor and array is 0.01 in the experiment with Mcl-1, Q07820 and 0.01 with Bcl-xL, Q07817.

B31: TBL1XR1 (peptide)
chain: AIKWDPTGNLDASCSDDMTLKIWSMK
Turning to B31, the SPOT signal as a fraction of Bim BH3's signal on the same receptor and array worked out at 0.03 in the experiment with Mcl-1, Q07820 and 0.03 in the experiment with Bcl-xL, Q07817.

B32: NT5C2 (peptide)
chain: CDLLGAKGKDDLYIGDHIFGDILKSK
For the molecule B32, the SPOT signal as a fraction of Bim BH3's signal on the same receptor and array came out at 0.04 in the experiment with Mcl-1, Q07820 and 0.02 with Bcl-xL, Q07817.

B33: CLTCL1 (peptide)
chain: FRFAQLCGLHIVIHLDELEELMCYYQ
As to B33, the SPOT signal as a fraction of Bim BH3's signal on the same receptor and array is 0.03 in the experiment with Mcl-1, Q07820 and 0.02 with Bcl-xL, Q07817.

B34: DDX7 (peptide)
chain: GLFSATSGVDDKYVADTFGQEVRPVS
For the molecule B34, the SPOT signal as a fraction of Bim BH3's signal on the same receptor and array is 0.01 with Mcl-1, Q07820 and 0.02 with Bcl-xL, Q07817.

B35: CPS1 (peptide)
chain: LRCEMASTGEDACFGEGIHTAFLKAM
As for B35, the SPOT signal as a fraction of Bim BH3's signal on the same receptor and array in the experiment with Mcl-1, Q07820 was found to be 0.03; in the experiment with Bcl-xL, Q07817 it was 0.02.

B36: BAT3 (peptide)
chain: QRLINLVGESDRLLGNTFVALSDLRC
In the case of B36, the SPOT signal as a fraction of Bim BH3's signal on the same receptor and array worked out at 0.02 with Mcl-1, Q07820 and 0.08 with Bcl-xL, Q07817.

B37: CAD (peptide)
chain: LRVSTKIGSCMKSVGEVMGIGRSFEE
B37: the SPOT signal as a fraction of Bim BH3's signal on the same receptor and array in the experiment with Mcl-1, Q07820 came out at 0.04; with Bcl-xL, Q07817, 0.05.
